T1: CREBL1 (Homo sapiens, UniProt Q99941)
T1 construct: expressed in transfected cells; host or cells: HEK293T
T1 sequence (Q99941 1-703): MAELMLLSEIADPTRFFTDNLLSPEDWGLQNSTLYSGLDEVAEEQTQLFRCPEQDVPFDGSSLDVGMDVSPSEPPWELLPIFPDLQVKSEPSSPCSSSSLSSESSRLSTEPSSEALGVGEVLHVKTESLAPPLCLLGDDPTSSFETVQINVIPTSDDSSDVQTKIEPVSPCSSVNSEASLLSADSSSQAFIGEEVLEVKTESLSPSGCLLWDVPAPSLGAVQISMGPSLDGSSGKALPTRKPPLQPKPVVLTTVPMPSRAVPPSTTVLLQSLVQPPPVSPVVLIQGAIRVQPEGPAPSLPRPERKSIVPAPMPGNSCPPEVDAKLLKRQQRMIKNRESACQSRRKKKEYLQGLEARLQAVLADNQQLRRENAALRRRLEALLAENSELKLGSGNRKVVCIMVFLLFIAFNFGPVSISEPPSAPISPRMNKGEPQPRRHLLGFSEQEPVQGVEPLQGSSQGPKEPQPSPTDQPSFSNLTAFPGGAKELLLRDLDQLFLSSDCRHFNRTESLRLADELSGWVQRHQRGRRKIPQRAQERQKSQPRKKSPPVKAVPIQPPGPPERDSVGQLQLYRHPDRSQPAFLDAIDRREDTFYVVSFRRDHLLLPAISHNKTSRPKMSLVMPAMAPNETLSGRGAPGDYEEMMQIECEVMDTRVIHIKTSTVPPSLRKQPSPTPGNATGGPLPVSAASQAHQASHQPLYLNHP

T2: HNF-4α (Homo sapiens, UniProt P41235)
T2 construct: expressed in transfected cells; host or cells: HEK293T
T2 sequence (P41235 10-474): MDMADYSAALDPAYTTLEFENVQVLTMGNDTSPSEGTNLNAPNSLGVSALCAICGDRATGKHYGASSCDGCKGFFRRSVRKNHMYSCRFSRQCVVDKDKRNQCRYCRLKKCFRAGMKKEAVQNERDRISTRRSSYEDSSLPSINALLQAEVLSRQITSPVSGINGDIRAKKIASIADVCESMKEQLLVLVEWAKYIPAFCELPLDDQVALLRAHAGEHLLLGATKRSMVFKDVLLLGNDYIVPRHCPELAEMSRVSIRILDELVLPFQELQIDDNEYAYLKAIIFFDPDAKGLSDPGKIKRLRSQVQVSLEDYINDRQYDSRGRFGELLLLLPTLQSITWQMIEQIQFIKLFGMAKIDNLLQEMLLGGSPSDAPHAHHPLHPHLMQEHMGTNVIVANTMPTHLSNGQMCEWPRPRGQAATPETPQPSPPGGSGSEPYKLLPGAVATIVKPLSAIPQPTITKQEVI

T3: ATF6 (Homo sapiens, UniProt P18850)
T3 construct: expressed in transfected cells; host or cells: HEK293T
T3 sequence (P18850 1-670): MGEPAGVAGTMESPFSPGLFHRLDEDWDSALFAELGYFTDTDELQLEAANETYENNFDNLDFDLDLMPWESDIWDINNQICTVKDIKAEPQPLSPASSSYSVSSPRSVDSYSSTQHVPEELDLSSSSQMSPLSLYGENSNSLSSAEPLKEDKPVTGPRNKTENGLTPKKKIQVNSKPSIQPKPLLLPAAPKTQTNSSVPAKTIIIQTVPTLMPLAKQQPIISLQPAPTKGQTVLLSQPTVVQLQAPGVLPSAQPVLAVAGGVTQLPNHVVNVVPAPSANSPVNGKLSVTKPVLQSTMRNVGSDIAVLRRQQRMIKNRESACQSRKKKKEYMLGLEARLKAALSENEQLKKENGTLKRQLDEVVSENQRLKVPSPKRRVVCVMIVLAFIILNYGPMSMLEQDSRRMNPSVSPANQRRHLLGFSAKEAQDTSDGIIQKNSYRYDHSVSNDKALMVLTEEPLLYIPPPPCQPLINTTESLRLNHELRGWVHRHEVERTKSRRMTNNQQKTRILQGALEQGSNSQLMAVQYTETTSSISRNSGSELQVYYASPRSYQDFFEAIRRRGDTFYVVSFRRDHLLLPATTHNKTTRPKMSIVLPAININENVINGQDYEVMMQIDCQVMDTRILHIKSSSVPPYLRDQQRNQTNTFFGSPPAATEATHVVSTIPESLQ

B1: mature HtrA2 (S306A, GVPS): SEQ ID NO: 14; mature HtrA2 (S306A) with N-terminal alanine substituted with glycine (protein)
chain: MGVPSPPPASPRSQYNFIADVVEKTAPAVVYIEILDRHPFLGREVPISNGSGFVVAADGLIVTNAHVVADRRRVRVRLLSGDTYEAVVTAVDPVADIATLRIQTKEPLPTLPLGRSADVRQGEFVVAMGSPFALQNTITSGIVSSAQRPARDLGLPQTNVEYIQTDAAIDFGNAGGPLVNLDGEVIGVNTMKVTAGISFAIPSDRLREFLHRGEKKNSSSGISGSQRRYIGVMMLTLSPSILAELQLREPSFPDVQHGVLIHKVILGSPAHRAGLRPGDVILAIGEQMVQNAEDVYEAVRTQSQLAVQIRRGRETLTLYVTPEVTE
modifications: Polypeptide consisting of the same amino acid sequence of SEQ ID NO6 wherein the 2nd amino acid residue is substituted by Gly; mature HtrA2(S306A, GVPS)
notes: mature HtrA2 (S306A) with N-terminal alanine substituted with glycine
B2: mature HtrA2 (S306A, ΔAVPS): SEQ ID NO: 12; mature HtrA2 (S306A) lacking the N-terminal four amino acid residues (AVPS) (protein)
chain: MPPPASPRSQYNFIADVVEKTAPAVVYIEILDRHPFLGREVPISNGSGFVVAADGLIVTNAHVVADRRRVRVRLLSGDTYEAVVTAVDPVADIATLRIQTKEPLPTLPLGRSADVRQGEFVVAMGSPFALQNTITSGIVSSAQRPARDLGLPQTNVEYIQTDAAIDFGNAGGPLVNLDGEVIGVNTMKVTAGISFAIPSDRLREFLHRGEKKNSSSGISGSQRRYIGVMMLTLSPSILAELQLREPSFPDVQHGVLIHKVILGSPAHRAGLRPGDVILAIGEQMVQNAEDVYEAVRTQSQLAVQIRRGRETLTLYVTPEVTE
modifications: Polypeptide consisting of the same amino acid sequence of SEQ ID NO6 wherein the amino acid residues from the 2nd to the 5th are deleted; mature HtrA2(S306A, delta AVPS)

How the values were obtained:
CREBL1 = target: T1, CREBL1; experiment: Intracellular protease assay, co-expression with CREBL1 in HEK293T cells; format: cell-based; conditions: 48 hours
Protocol: (§1) HEK293T cells were cultured to 1.5×10^5 cells/10 cm Dish. Next day, the expression plasmid of CREBL1 or ATF6 was transfected into HEK293T cells together with the expression plasmid of various types of HtrA2 using FuGene 6 (Roche). Each of the expression plasmid of various HtrA2 at 1 μg/Dish was added in combination with CREBL1 expression plasmid or ATF6 expression plasmid at 1 μg/Dish. Forty eight hours later, the cells in which the various types of HtrA2 were co-expressed with CREBL1 or ATF6 were added with 200 μl of lysis buffer B and an equivalent volume of 2×SDS sample buffer (containing 0.1% β-mercaptoethanol), and then subjected to sonication followed by boiling to use as a test sample.
(§2) Expression of CREBL1 and ATF6 and the degradation of these proteins were detected by western blotting using 10 μl of the test sample thus obtained. Anti-c-Myc (9E10) antibody was used as a primary antibody for detection, and horseradish peroxidase (HRP) conjugated anti-mouse IgG antibody (Cell Signaling) was used as a secondary antibody. Detection was carried out using ECL Western Blotting Detection System.

casein = experiment: Casein zymography and protease assay with casein sodium; format: biochemical; conditions: HtrA2 types expressed in a cultured cell
Protocol: Determination of the activity of mature HtrA2 and mature HtrA2 (S306A) was carried out with casein zymography and with a protease assay with casein sodium. Casein zymography was carried out according to the protocol (Invitrogen). More concretely, mature HtrA2 and mature HtrA2 (S306A) were mixed under non-reductive condition with equivalent volume of 2×SDS sample buffer, left to stand at room temperature for 10 min, followed by separation with 4-16% zymogram (Blue casein) gel (Zymogram Gel, Invitrogen). After completion of electrophoresis, they were renatured with 2.5% Triton X-100, and then subjected to a degradation reaction of casein in the developing buffer at 37= C. for overnight.
Meanwhile, a protease assay using casein sodium as an substrate was carried out in such that mature HtrA2 or mature HtrA2 (S306A) was mixed with casein sodium in a reaction buffer (150 mM NaCl, 50 mM Tris-HCl (pH 7.5)) so as to the concentration of the former might become 200 μg/ml and the concentration of the latter might become 400 μg/ml, and incubated at 37° C. for reactions. A portion of the reaction solution was sampled at three hours and overnight after initiation of the reaction, mixed with equivalent volume of 2×SDS sample buffer followed by boiling, and then subjected to SDS-PAGE. After that, the degradation of casein sodium was detected by Coomassie Brilliant Blue (CBB) staining.
The enzyme activity of the various types of HtrA2 each of which was expressed in a cultured cell was determined by the protease assay using casein sodium as a substrate (see Example 2).

HNF-4α = target: T2, HNF-4α; experiment: Intracellular protease assay, co-expression with HNF-4α in HEK293T cells; format: cell-based; conditions: 48 hours
Protocol: as §1, with “cells/6” for “cells/10”, “HNF-4α” for “CREBL1 or ATF6”, “HNF-4α” for “CREBL1 expression plasmid or ATF6”
Expression of HNF-4α and the degradation of HNF-4α were detected by western blotting using 10 μl of the test sample thus obtained. Anti-FLAG antibody (Sigma) was used as a primary antibody for detection, and horseradish peroxidase (HRP) labeled anti-mouse IgG antibody (Cell Signaling) was used as a secondary antibody. Detection was carried out using ECL Western Blotting Detection System.

ATF6 = target: T3, ATF6; experiment: Intracellular protease assay, co-expression with ATF6 in HEK293T cells; format: cell-based; conditions: 48 hours
Protocol: as §1, §2

Molecule | degradation of CREBL1 in cells (band by western blotting) (CREBL1) | protease activity using casein sodium as a substrate (casein) | degradation of HNF-4α in cells (band by western blotting) (HNF-4α) | degradation of ATF6 in cells (band by western blotting) (ATF6)
B1 | the reduction of the band of CREBL1 was not observed | inactive type without exhibiting protease activity | the reduction of the band of HNF-4α was not observed | the reduction of the band of ATF6 was not observed
B2 | the reduction of the band of CREBL1 was not observed | inactive type without exhibiting protease activity | the reduction of the band of HNF-4α was not observed | the reduction of the band of ATF6 was not observed
